The values that follow come from the supplement of paper PMC10724198.

± gives the standard deviation of the averaged measurements.

In this data set the test system is Saccharomyces cerevisiae. The experiment in a line: protein stability index of tFT-peptide fusion (C-terminal peptide) (PSI (0-1 scale)); higher = more stable (slower turnover). The following applies: temperature: 30 C. How it is done: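 MPS profiling in S. cerevisiae of the yeast C-terminome library: the last 12 aa of each annotated ORF are fused to the C-terminus of a sfGFP-mCherry timer, after a GGGS linker. Cells are FACS-sorted into 8 mCherry/sfGFP bins and deep-sequenced. PSI runs from 0 (unstable) to 1 (stable); wild type and das1Δ backgrounds, two technical replicates each.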

Setting [1] is: genetic background: das1 deletion.

For TNDRLQSILHDL [MEF2 C-terminal 12 aa], the protein stability index by setting is: under setting [1], 0.7148 ± 0.0071; (genetic background: wild type) 0.702 ± 0.013.
The corresponding values for TNERQLNPWICN [YML090W C-terminal 12 aa] are 0.7061 ± 0.0031 and 0.688 ± 0.031.
The corresponding values for TPDVLAAGPQFE [PCK1 C-terminal 12 aa] are 0.7065 ± 0.0036 and 0.6787 ± 0.0029.
For TQKKVDQRWKKH [SEN54 C-terminal 12 aa] the same measures were 0.692 ± 0.016 and 0.737 ± 0.082.
With TQLVQKALERFK [RIC1 C-terminal 12 aa], the protein stability index runs as follows: under setting [1], 0.734 ± 0.025; (genetic background: wild type) 0.676 ± 0.084.
For TSDGSASDLEII [MCM10 C-terminal 12 aa] the same measures were 0.686 ± 0.0096 and 0.692 ± 0.024.
For TSLEKQINSIKK [NSP1 C-terminal 12 aa] the same measures were 0.753 ± 0.036 and 0.70199 ± 0.0005.
The corresponding values for TSNGGVEETMKM [ARX1 C-terminal 12 aa] are 0.6815 ± 0.00071 and 0.676 ± 0.025.
As for TSNSPSPDLMEK [SMA2 C-terminal 12 aa], the protein stability index reads like this: under setting [1], 0.7018 ± 0.0012; (genetic background: wild type) 0.705 ± 0.042.
With TSPPEGMEPKHW [SGT1 C-terminal 12 aa], the protein stability index runs as follows: under setting [1], 0.696 ± 0.013; (genetic background: wild type) 0.687 ± 0.0088.
The corresponding values for TVIFSCVPGRRV [RAX1 C-terminal 12 aa] are 0.7205 ± 0.0062 and 0.709 ± 0.0011.
For TVNYNDKTISGN [VPS30 C-terminal 12 aa] the same measures were 0.689 ± 0.022 and 0.692 ± 0.055.
The corresponding values for TYNSYTEPEELR [FMP27 C-terminal 12 aa] are 0.692 ± 0.025 and 0.716 ± 0.05.
VAHRENLAFPPR [PRO1 C-terminal 12 aa]: the protein stability index is 0.732 ± 0.02 under setting [1] and 0.707 ± 0.012 (genetic background: wild type).
“VARRITDHTCLM [YLR364C-A C-terminal 12 aa]”: the protein stability index under setting [1] was 0.677 ± 0.0084 and the protein stability index (genetic background: wild type) was determined as 0.696 ± 0.031.
As to VCKFASWLFSKI [AMD2 C-terminal 12 aa], the protein stability index under setting [1] came out at 0.72 ± 0.041 and the protein stability index (genetic background: wild type) is 0.6687 ± 0.005.
For VDHLTDPDIYIP [BUB2 C-terminal 12 aa] the same measures were 0.7 ± 0.017 and 0.7129 ± 0.0042.
For VERNHPVITNIS [YCR087W C-terminal 12 aa] the same measures were 0.7114 ± 0.0043 and 0.733 ± 0.062.
The corresponding values for VESPTLFCVCTQ [YPR170C C-terminal 12 aa] are 0.6115 ± 0.0024 and 0.66 ± 0.028.
VFWKLKSRKLRI [MCH1 C-terminal 12 aa]: the protein stability index was 0.692 ± 0.0085 under setting [1] and 0.418 ± 0.033 (genetic background: wild type).
In the case of VGENNYYAESII [COS111 C-terminal 12 aa], the protein stability index reads like this: under setting [1], 0.714 ± 0.024; (genetic background: wild type) 0.7022 ± 0.005.
For VGRKPRLPKGKL [YCL002C C-terminal 12 aa] the same measures were 0.758 ± 0.021 and 0.842 ± 0.024.
For VHPNWSPFEVFK [GCY1 C-terminal 12 aa], the protein stability index turned out to be 0.744 ± 0.033 under setting [1] and 0.738 ± 0.037 (genetic background: wild type).
The corresponding values for VHTELLIYCHDE [ASR1 C-terminal 12 aa] are 0.7068 ± 0.006 and 0.6802 ± 0.0017.
For the sequence VIKQQNHQTTKI [HKR1 C-terminal 12 aa], the protein stability index runs as follows: under setting [1], 0.68 ± 0.037; (genetic background: wild type) 0.705 ± 0.055.
The corresponding values for VISLAAQSKYVQ [MCO6 C-terminal 12 aa] are 0.693 ± 0.019 and 0.697 ± 0.034.
With VKDKVDAVYSSS [FAA1 C-terminal 12 aa], the protein stability index by setting is: under setting [1], 0.6925 ± 0.0045; (genetic background: wild type) 0.678 ± 0.011.
Take VKKNKPSIESKC [GSH1 C-terminal 12 aa]: the protein stability index by setting is: under setting [1], 0.688 ± 0.0086; (genetic background: wild type) 0.762 ± 0.03.
For VLESFLAPMVNQ [BET5 C-terminal 12 aa] the same measures were 0.688 ± 0.0073 and 0.71 ± 0.061.
As to VLIVLLVLAFIA [TLG1 C-terminal 12 aa], the protein stability index under setting [1] is 0.284 ± 0.013 and the protein stability index (genetic background: wild type) is 0.286 ± 0.0034.
The corresponding values for VMLLFIFLIMKL [PEP12 C-terminal 12 aa] are 0.186 ± 0.023 and 0.198 ± 0.01.
For the sequence VMLNSVSISLNK [COG5 C-terminal 12 aa], the protein stability index reads like this: under setting [1], 0.711 ± 0.014; (genetic background: wild type) 0.6577 ± 0.00017.
The corresponding values for VNHNWYSIYEST [TFC3 C-terminal 12 aa] are 0.729 ± 0.013 and 0.681 ± 0.0081.
For the sequence VPLIIDSSGSAN [FTH1 C-terminal 12 aa], the protein stability index under setting [1] stood at 0.718 ± 0.011 and the protein stability index (genetic background: wild type) is 0.68 ± 0.0077.
As for VRLRGRKRSMLG [BUD32 C-terminal 12 aa], the protein stability index is 0.701 ± 0.02 under setting [1] and 0.665 ± 0.023 (genetic background: wild type).
For VSGFKDEVLETV [RPS1B C-terminal 12 aa] the same measures were 0.679 ± 0.037 and 0.708 ± 0.029.
The corresponding values for VTTTFDKVHQDW [LEU1 C-terminal 12 aa] are 0.715 ± 0.017 and 0.714 ± 0.058.
For VTVSNVWFNQLQ [YPL197C C-terminal 12 aa] the same measures were 0.70615 ± 0.00045 and 0.526 ± 0.014.
For the sequence VVCMVVLLAVLS [VAM3 C-terminal 12 aa], the protein stability index was 0.148 ± 0.018 under setting [1] and 0.171 ± 0.012 (genetic background: wild type).
For VVGEDEKDDFFE [EFG1 C-terminal 12 aa] the same measures were 0.721 ± 0.024 and 0.691 ± 0.026.
For VVGRYMRSGLKK [NOP1 C-terminal 12 aa] the same measures were 0.6704 ± 0.005 and 0.682 ± 0.028.
VVNNRRQSRTPK [BLI1 C-terminal 12 aa] gave a protein stability index under setting [1] of 0.707 ± 0.044 and a protein stability index (genetic background: wild type) of 0.661 ± 0.0082.
The corresponding values for VVYRHLHTKVSK [HAL5 C-terminal 12 aa] are 0.682 ± 0.0075 and 0.658 ± 0.0043.
For VYGRNGNESHST [YGR050C C-terminal 12 aa] the same measures were 0.701 ± 0.019 and 0.689 ± 0.017.
As to VYTSKTQYKFDI [YNR071C C-terminal 12 aa], the protein stability index turned out to be 0.6849 ± 0.0021 under setting [1] and 0.694 ± 0.062 (genetic background: wild type).
As to “WFICRMLSKVTL [YNR003W-A C-terminal 12 aa]”, the protein stability index is, setting by setting: under setting [1], 0.609 ± 0.012; (genetic background: wild type) 0.595 ± 0.012.
The corresponding values for WHKSQLEDMNGY [YHL012W C-terminal 12 aa] are 0.683 ± 0.005 and 0.6568 ± 0.0052.
As to WLPELALLCALD [LAS21 C-terminal 12 aa], the protein stability index runs as follows: under setting [1], 0.614 ± 0.0098; (genetic background: wild type) 0.633 ± 0.017.
Take WRKFGINSYSYS [DIA2 C-terminal 12 aa]: the protein stability index is 0.734 ± 0.016 under setting [1] and 0.759 ± 0.075 (genetic background: wild type).
As to WRSIGSGPIMEF [BUG1 C-terminal 12 aa], the protein stability index runs as follows: under setting [1], 0.706 ± 0.024; (genetic background: wild type) 0.719 ± 0.031.
Consider WSDKLLQIYARC [SAE2 C-terminal 12 aa], for which the protein stability index by setting is: under setting [1], 0.5447 ± 0.0049; (genetic background: wild type) 0.516 ± 0.045.
As to WVAHSKTKLATK [CAB2 C-terminal 12 aa], the protein stability index by setting is: under setting [1], 0.677 ± 0.014; (genetic background: wild type) 0.70267 ± 0.00017.
Consider YANLLYKFWNDQ [PCL7 C-terminal 12 aa], for which the protein stability index is 0.735 ± 0.011 under setting [1] and 0.672 ± 0.021 (genetic background: wild type).
As to YASRGTGELWSP [NMD4 C-terminal 12 aa], the protein stability index is 0.7031 ± 0.004 under setting [1] and 0.714 ± 0.0047 (genetic background: wild type).
The corresponding values for YAVFTVLFSIIF [SPS2 C-terminal 12 aa] are 0.297 ± 0.013 and 0.295 ± 0.0078.
In turn, YCFYINCIMNRR [RRT15 C-terminal 12 aa] showed a protein stability index under setting [1] of 0.658 ± 0.031 and a protein stability index (genetic background: wild type) of 0.551 ± 0.00072.
In the case of YEIEPDFDRLAV [SVP26 C-terminal 12 aa], the protein stability index was 0.691 ± 0.022 under setting [1] and 0.681 ± 0.021 (genetic background: wild type).
The corresponding values for YERERKLRGGKK [NOP14 C-terminal 12 aa] are 0.702 ± 0.027 and 0.692 ± 0.072.
Regarding YEYHTEEDVMYA [YGR130C C-terminal 12 aa], the protein stability index is, setting by setting: under setting [1], 0.703 ± 0.013; (genetic background: wild type) 0.684 ± 0.044.
Consider YFNLFTDLSGSK [NEL1 C-terminal 12 aa], for which the protein stability index reads like this: under setting [1], 0.73 ± 0.012; (genetic background: wild type) 0.72 ± 0.043.
For YGLLKFHSVFES [YMR209C C-terminal 12 aa] the same measures were 0.707 ± 0.0069 and 0.668 ± 0.054.
For YGNWSKTVADLN [BAT1 C-terminal 12 aa] the same measures were 0.692 ± 0.022 and 0.687 ± 0.022.
The corresponding values for YGRGETPKHAIE [DPH1 C-terminal 12 aa] are 0.692 ± 0.0084 and 0.713 ± 0.062.
Regarding YKTEYPEWALRR [PUS9 C-terminal 12 aa], the protein stability index is, setting by setting: under setting [1], 0.723 ± 0.01; (genetic background: wild type) 0.717 ± 0.053.
In the case of YLIKNPGYPIVF [OST6 C-terminal 12 aa], the protein stability index runs as follows: under setting [1], 0.621 ± 0.0095; (genetic background: wild type) 0.6361 ± 0.0047.
For YLISEKIIRKHL [MET14 C-terminal 12 aa] the same measures were 0.685 ± 0.017 and 0.602 ± 0.026.
For YLPRSKWFGILV [ALG14 C-terminal 12 aa] the same measures were 0.359 ± 0.02 and 0.165 ± 0.0058.
